{"source": "patent US8889408B2", "about": "“Factor taking part in transcription control” (Sony Corporation, priority 2002, dated 2014)", "molecules": {"B1": {"name": "N4TPR: dominant negative peptide of HDART: four TPRs at the N terminus, amino acids 1 to 179 of SEQ ID NO: 2 (protein, listed as Homo sapiens)", "chain": "MVVMARLSRPERPDLVFEEEDLPYEEEIMRNQFSVKCWLRYIEFKQGAPKPRLNQLYERALKLLPCSYKLWYRYLKARRAQVKHRCVTDPAYEDVNNCHERAFVFMHKMPRLWLDYCQFLMDQGRVTHTRRTFDRALRALPITQHSRIWPLYLRFLRSHPLPETAVRGYRRFLKLSPES"}}, "key": {"[1]": {"system": "HDAC", "experiment": "CAT reporter analysis with HDART in the presence of HDAC inhibitors", "assay_type": "cell-based", "conditions": "pcDNA3-HDART 1 μg", "experimental": "In this example, however, a given amount of pcDNA3-HDART expression vector (1 μg) (“HDART+” in FIGS. 10) and 100 nM of TSA or […] of sodium butyrate was added to along with a ligand (ATRA or dexamethasone)."}, "[2]": {"system": "retinoic acid receptor", "experiment": "RAR reporter CAT analysis in HepG2 cells", "assay_type": "cell-based", "experimental": "Since it is shown in the above example that HDART is able to interact with Skip, the functional role of HDART on the transcription route ascribed to a nuclear receptor was analyzed. First, the effect of HDART on the transcription regulation by retinoic acid receptor was analyzed. For this purpose, the CAT analysis was made using a RAR (retinoid acid receptor) reporter plasmid incorporating a thymidine kinase minimum promoter (pTREpal-tata) and CAT gene therein downstream of a retinoid response element.\nMore particularly, pcDNA3-HDART, capable of steadily expressing HDART, and, at the same time, RAR reporter plasmid, were transfected into HepG2 cells by use of Effectene kit (QIAGEN™). It is to be noted that the pcDNA3-HDART expression vector was introduced in different amounts of 0, 0.5 and 1.0 μg, and the amount of DNA in the respective transfections was equalized at 1 μg by adding the appropriate amount of a vacant vector of pcDNA. After the transfection, growth was made in the presence (10^−8 M) or absence of ATRA and the CAT activity was measured. The results of the measurement (FIG. 6) are indicated in terms of values corrected on the basis of the CAT activity obtained after introduction of 1.0 μg of a vacant vector in the absence of ATRA. In addition, the average of the results of three experiments and a standard deviation in terms of an error bar are also shown.\n(§1) Next, the influence of the overexpression of N4TPR on the transcription from RAR or a glucocorticoid responsive promoter was checked. It will be noted that this test was made in the same manner as in the reporter analysis set out in Example 4, but using GFP-N4TPR expression vector (0, 0.3 and 0.5 μg)."}, "[3]": {"system": "MM-1-19-P cells", "experiment": "ATRA-induced differentiation of MM-1-19-P rhabdomyosarcoma cells", "assay_type": "cell-based, human", "excerpt": "It is known that ATRA (all-trans retinoic acid) is an important inducer for tumor cell differentiation (20-22). The human rhabdomyosarcoma cell line MM-1-19-P is constituted mainly of small polygonal cells, which when provided with retinoic acid, ultimately differentiate into myotubular cytomegalic cells. In order to clarify the physiological role of HDART in the reaction ascribed to nuclear hormone receptors, the influence of the expression with HDART on the differentiation of MM-1-19-P caused by ATRA was analyzed.\nMM-1-19-P cells were plated in a […] Petri dish, followed by co-transfection of the cells with 0.4 μg of pGFP vector and 2 μg of pcDNA3 (vacant vector) or pcDMA3-HDART (HDART expression vector). 24 hours after the transfection, the medium was changed with an ATRA-containing (2 μM) or ATRA-free fresh one. […] All experiments were repeated four times, and the number of cells assessed as positive for GFP was counted. It will be noted that in FIG. 12, the standard microphotographs of green fluorescence of GFP are shown in panels of FIGS. 12A, 12B, 12C and 12D, and the phase differential microphotographs are shown in panels of FIGS. 12E and 12F, respectively. In the figure, 12A indicates ATRA non-treated, vacant vector-introduced cells, 12B indicates ATRA treated, vacant vector-introduced cells, 12C indicates ATRA-non-treated, HDART expression vector-introduced cells, 12D indicates ATRA-treated, HDART expression vector-introduced cells, 12E indicates cells under the same conditions as in 12C above, and 12F indicates cells under the same conditions as in 12D above. In addition, the black arrow in the panel of FIG. 12F indicates undifferentiated GFP positive cells, and white arrow indicates differentiated cells."}, "[4]": {"system": "glucocorticoid receptor (GR)", "experiment": "GR reporter CAT analysis in GR positive Hela cells", "assay_type": "cell-based", "experimental": "Furthermore, the action of HDART on the transcription regulation by glucocorticoid receptor (GR) was analyzed by use of GR reporter plasmid in GR positive Hela cells. The transcription activity of a glucocorticoid response promoter was carried out in the same manner as in the experiment for the retinoic acid receptor except for the use of Hela cells and 10^−8 M of dexamethasone. The results of the measurement are shown in the same manner as shown above.\nas §1"}, "[5]": {"biological_target": "T1, Skip (Homo sapiens, UniProt Q13573)", "T1 sequence (Q13573 1-536)": "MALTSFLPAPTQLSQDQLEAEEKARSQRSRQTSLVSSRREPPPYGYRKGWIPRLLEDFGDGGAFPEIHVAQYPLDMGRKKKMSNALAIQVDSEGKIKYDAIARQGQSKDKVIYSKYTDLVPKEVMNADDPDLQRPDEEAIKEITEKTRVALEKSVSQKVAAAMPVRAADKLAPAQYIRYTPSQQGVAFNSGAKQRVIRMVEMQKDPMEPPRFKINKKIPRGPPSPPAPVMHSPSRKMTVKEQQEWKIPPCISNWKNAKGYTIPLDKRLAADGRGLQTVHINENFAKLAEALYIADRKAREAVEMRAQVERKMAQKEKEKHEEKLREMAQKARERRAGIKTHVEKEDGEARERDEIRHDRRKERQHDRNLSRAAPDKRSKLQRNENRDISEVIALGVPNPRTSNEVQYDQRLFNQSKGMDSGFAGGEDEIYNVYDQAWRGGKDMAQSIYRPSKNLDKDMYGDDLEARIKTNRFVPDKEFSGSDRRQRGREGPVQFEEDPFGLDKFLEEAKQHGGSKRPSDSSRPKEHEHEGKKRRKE", "experiment": "Immunoprecipitation: N4TPR inhibition of endogenous HDART-Skip interaction in 293 cells", "assay_type": "binding", "parameters": "expressed in transfected cells; host or cells: 293 cells", "conditions": "GFP-N4TPR expressed versus GFP alone", "excerpt": "RAR and TR inhibit the genetic activity in the absence of a ligand in vivo (Baniahmad, A., Kohne, A. C., and Renkawitz, R. (1992) Embo J 11(3), 1015-23) and in vitro (Fondell, J. D., Roy, A. L., and Roeder, R. G. (1993) Genes Dev 7(7B), 1400-10). From this, this is called active repression. Skip interacts with NHR independently of ligand (MacDonald, P. N., Baudino, T. A., Toumaru, H., Dowd, D. R., and Zhang, C. (2001) Steroids 66 (3-5), 171-6). […] In order to clarify these possibilities, a dominant negative line of HDART is overexpressed to check the influence on the transcription ascribed to RAR. As shown in Example 2, the four TRPs (N4TPR) at the N terminus of HDART are in the Skip binding region, so that it is hypothesized that the expression of this region inhibits the interaction between the endogenous HDART and Skip, it is inhibiting the natural function of HDART and functioning as a dominant negative. In this sense, the N4TPR was used as a candidate for dominant negative in this example.\nFlag-Skip and N4TPR tagged with GFP or GFP were transfected into 293 cells. […] The expression of Flag-Skip was detected using an anti-Flag antibody, the expression of GFP and GFP-N4TPR detected using an anti-GFP antibody, and the expression of the internal HDART detected using an anti-HDART antibody, respectively (FIG. 11A)."}, "[6]": {"biological_target": "T1, Skip", "experiment": "Yeast two-hybrid analysis (β-galactosidase) of HDART-Skip interaction", "assay_type": "binding", "parameters": "expressed in transfected cells; host or cells: Saccharomyces cerevisiae Y190", "conditions": "Gal4DBD-HDART and deletion mutants with Gal4AD-Skip; β-galactosidase activity", "excerpt": "In order to isolate a protein that binds to this HDART, a yeast two-hybrid system was used. More particularly, a yeast MATCHMAKER two-hybrid analysis kit (Clontech) was used for the isolation. The ORF full length of HDART was inserted so that it and the Gal4 DNA binding domain reading frame were aligned in the same frame with each other within pAS-1 vector (Clontech). This bait plasmid was transformed into Saccharomyces cerevisiae Y190 along with pACT2 prey plasmid whose HeLa cDNA (Clontech) had been sub-cloned. The screening for clones into which both plasmids were introduced was carried out according to the kit protocol. […]\nFor mapping of regions on the Skip taking part in the interaction with HDART, a series of deletion mutations where various regions on Skip (N-terminus region (codon 1-220), nuclear hormone binding region (NHR binding, codon 221-388), and tran-activation region (TA, codon 438-536) were deleted, and the interaction between HDART and mutated Skip was analyzed according to the yeast two-hybrid analysis using Gal4DBD-HDART as set forth in Example 2. The results of the analysis are shown in FIG. 5A. The sign “+” indicated at the right of FIG. 5A indicates the observation of the interaction by the filter lift analysis of β-galactosidase activity, and the number of “+” indicates the relative intensity of the interaction. […]"}, "[7]": {"conditions": "absence of a ligand, GFP-N4TPR expression vector 0.5 μg (highest expression level)"}, "[8]": {"conditions": "absence of ligand, GFP-N4TPR expression vector 0.3 μg"}}}
{"molecule": "CC(/C=C/C(=O)NO)=C\\[C@@H](C)C(=O)c1ccc(N(C)C)cc1", "note": "[triconstatin A, tricostatin A]", "values": [{"measurement": "expression repression by HDART", "setting": "[1]; 100 nM TSA added with ligand (ATRA or dexamethasone)", "result": "fully neutralized"}]}
{"molecule": "CCCC(=O)[O-].[Na+]", "note": "[sodium butyrate]", "values": [{"measurement": "expression repression by HDART", "setting": "[1]; 1 mA of sodium butyrate added with ligand (ATRA or dexamethasone)", "result": "The same results were also observed"}]}
{"molecule": "CC1=C(/C=C/C(C)=C/C=C/C(C)=C/C(=O)O)C(C)(C)CCC1", "note": "[ATRA, all-trans retinoic acid, reference compound]", "values": [{"measurement": "CAT activity", "setting": "[2]; HepG2 cells receiving vacant vector (pcDNA), presence of ATRA 10^−8 M versus absence", "result": "increased five-fold"}, {"measurement": "number of GFP positive cells (cytotoxic effect)", "setting": "[3]; cells treated with the vacant vector and ATRA 2 μM", "result": "less than 30%"}, {"measurement": "morphological differentiation into muscle tissue (myotubular cytomegalic cells)", "setting": "[3]; vacant vector-introduced cells, ATRA 2 μM, 48 hours", "result": "differentiated into muscle tissue"}]}
{"molecule": "B1", "values": [{"measurement": "transcription activation capability for the retinoic acid receptor compared with ATRA", "setting": "[2]; N4TPR versus ATRA", "result": "higher transcription activation capability than ATRA"}, {"measurement": "transcription activity from the RAR responsive promoter", "setting": "[2]; [7]", "result": "about 20 times"}, {"measurement": "transcription activity from the RAR responsive promoter", "setting": "[2]; [8]", "result": "increased up to the amount (gray column) of transcription activity induced by the presence of ligand"}, {"measurement": "transcription activity from the glucocorticoid responsive promoter", "setting": "[4]; [7]", "result": "about 20 times"}, {"measurement": "transcription activity from the glucocorticoid responsive promoter", "setting": "[4]; [8]", "result": "increased up to the amount (gray column) of transcription activity induced by the presence of ligand"}, {"measurement": "amount of HDART co-precipitated with Skip", "setting": "[5]", "result": "more reduced amount"}, {"measurement": "interaction with Skip", "setting": "[6]", "result": "ensures the interaction with Skip to a full extent"}]}
